Measurements from paper PMC7615710 (2023).

Legend:
[1] = molecular target: T1, ASPP1 C-terminal domain (CTD), tag cleaved (UniProt Q96KQ4 887-1090); assay: ITC
T1 chain: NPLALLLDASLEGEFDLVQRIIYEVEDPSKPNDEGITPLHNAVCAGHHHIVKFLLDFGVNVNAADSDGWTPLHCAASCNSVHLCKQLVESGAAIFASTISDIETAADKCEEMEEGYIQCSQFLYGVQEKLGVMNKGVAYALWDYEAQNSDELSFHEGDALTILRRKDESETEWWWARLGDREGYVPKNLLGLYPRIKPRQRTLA

[2] = molecular target: T2, ASPP2 C-terminal domain (CTD), tag cleaved (UniProt Q13625 925-1128); assay: ITC
T2 chain: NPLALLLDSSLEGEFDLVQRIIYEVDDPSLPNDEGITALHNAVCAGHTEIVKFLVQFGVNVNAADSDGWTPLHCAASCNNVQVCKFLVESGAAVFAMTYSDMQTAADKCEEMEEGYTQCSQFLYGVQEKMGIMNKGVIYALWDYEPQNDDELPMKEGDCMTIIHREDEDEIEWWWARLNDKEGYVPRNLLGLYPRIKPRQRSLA

Question: How did the Kd [1] turn out when LPPPKKAPTPPPRRRRTVGL [NS5A PRR peptide of HCV strain JFH-1 (20 aa)] was run?
Answer: The Kd was 3780 nM.

Question: What about the Kd [2] of the same binder?
Answer: The Kd was 42.4 nM.
